Reference: patent publication US20240084027A1 (BEIJING MABWORKS, published 2024)
Like-named read-outs stand apart in the source and are kept apart here.

B1: MBS307-10 (bispecific antibody, human IgG1, kappa, L234A L235A)
heavy 1: QVQLQESGPGLVKPSDTLSLTCAVSGYSITTNYYWNWIRQPPGKGLEWMGYIKYDGSNNYNPSLKNRITISVDTSKNQFSLKLSSVTAVDTAVYYCARLDYWGQGTLVTVSSASTKGPSVFPLAPSSKSTSGGTAALGCLVKDYFPEPVTVSWNSGALTSGVHTFPAVLQSSGLYSLSSVVTVPSSSLGTQTYICNVNHKPSNTKVDKKVEPKSCDKTHTCPPCPAPEAAGGPSVFLFPPKPKDTLMISRTPEVTCVVVDVSHEDPEVKFNWYVDGVEVHNAKTKPREEQYNSTYRVVSVLTVLHQDWLNGKEYKCKVSNKALPAPIEKTISKAKGQPREPQVYTLPPSREEMTKNQVSLWCLVKGFYPSDIAVEWESNGQPENNYKTTPPVLDSDGSFFLYSKLTVDKSRWQQGNVFSCSVMHEALHNHYTQKSLSLSPGK
heavy 2: QVQLQESGPGLVKPSDTLSLTCAVSGYSITTNYYWNWIRQPPGKGLEWMGYIKYDGSNNYNPSLKNRITISVDTSKNQFSLKLSSVTAVDTAVYYCARLDYWGQGTLVTVSSASTKGPSVFPLAPSSKSTSGGTAALGCLVKDYFPEPVTVSWNSGALTSGVHTFPAVLQSSGLYSLSSVVTVPSSSLGTQTYICNVNHKPSNTKVDKKVEPKSCDKTHTCPPCPAPEAAGGPSVFLFPPKPKDTLMISRTPEVTCVVVDVSHEDPEVKFNWYVDGVEVHNAKTKPREEQYNSTYRVVSVLTVLHQDWLNGKEYKCKVSNKALPAPIEKTISKAKGQPREPQVYTLPPSREEMTKNQVSLSCAVKGFYPSDIAVEWESNGQPENNYKTTPPVLDSDGSFFLVSKLTVDKSRWQQGNVFSCSVMHEALHNHYTQKSLSLSPGGGGGQVQLVQSGAEVKKPGASVKVSCKASGYTFTDYHVNWVRQAPGQGLEWIGWIFPGSGRTFYTDKFKGRVTMTVDTSTSTVYMELSSLRSEDTAVYYCATDYGTSGYGLVYWGQGTTVTVSSGGGGSGGGGSGGGGSGGGGSDIQMTQSPSSLSASVGDRVTITCKASDRINNWLAWYQQKPGKAPKLLISGATSLETGVPSRFSGSGSGTDFTLTISSLQPEDEATYYCQQYWNIPFTFGQGTKLTAK
light: DVVLTQSPLSLPVTLGQPASISCRSSQSLENSNGNTFLNWFQQRPGQSPRLLIYKVSNRFSGVPDRFSGSGSGTDFTLKISRVEAEDVGVYYCLQVTHVPFTFGQGTKLEIKRTVAAPSVFIFPPSDEQLKSGTASVVCLLNNFYPREAKVQWKVDNALQSGNSQESVTEQDSKDSTYSLSSTLTLSKADYEKHKVYACEVTHQGLSSPVTKSFNRGEC
notes: Asymmetric: knob chain without scFv, hole chain with the 3C2VH6VL5 scFv; also called MBS307-10-1 + MBS307-10-2
B2: MBS307-8 (bispecific antibody, human IgG1, kappa, L234A L235A)
heavy 1: QVQLQESGPGLVKPSDTLSLTCAVSGYSITTNYYWNWIRQPPGKGLEWMGYIKYDGSNNYNPSLKNRITISVDTSKNQFSLKLSSVTAVDTAVYYCARLDYWGQGTLVTVSSASTKGPSVFPLAPSSKSTSGGTAALGCLVKDYFPEPVTVSWNSGALTSGVHTFPAVLQSSGLYSLSSVVTVPSSSLGTQTYICNVNHKPSNTKVDKKVEPKSCDKTHTCPPCPAPEAAGGPSVFLFPPKPKDTLMISRTPEVTCVVVDVSHEDPEVKFNWYVDGVEVHNAKTKPREEQYNSTYRVVSVLTVLHQDWLNGKEYKCKVSNKALPAPIEKTISKAKGQPREPQVYTLPPSREEMTKNQVSLWCLVKGFYPSDIAVEWESNGQPENNYKTTPPVLDSDGSFFLYSKLTVDKSRWQQGNVFSCSVMHEALHNHYTQKSLSLSPGSGGGGSGGGGSQVQLVQSGAEVKKPGASVKVSCKASGYTFTDYHVNWVRQAPGQGLEWIGWIFPGSGRTFYTDKFKGRVTMTVDTSTSTVYMELSSLRSEDTAVYYCATDYGTSGYGLVYWGQGTTVTVSSGGGGSGGGGSGGGGSGGGGSDIQMTQSPSSLSASVGDRVTITCKASDRINNWLAWYQQKPGKAPKLLISGATSLETGVPSRFSGSGSGTDFTLTISSLQPEDEATYYCQQYWNIPFTFGQGTKLTAK
heavy 2: QVQLQESGPGLVKPSDTLSLTCAVSGYSITTNYYWNWIRQPPGKGLEWMGYIKYDGSNNYNPSLKNRITISVDTSKNQFSLKLSSVTAVDTAVYYCARLDYWGQGTLVTVSSASTKGPSVFPLAPSSKSTSGGTAALGCLVKDYFPEPVTVSWNSGALTSGVHTFPAVLQSSGLYSLSSVVTVPSSSLGTQTYICNVNHKPSNTKVDKKVEPKSCDKTHTCPPCPAPEAAGGPSVFLFPPKPKDTLMISRTPEVTCVVVDVSHEDPEVKFNWYVDGVEVHNAKTKPREEQYNSTYRVVSVLTVLHQDWLNGKEYKCKVSNKALPAPIEKTISKAKGQPREPQVYTLPPSREEMTKNQVSLSCAVKGFYPSDIAVEWESNGQPENNYKTTPPVLDSDGSFFLVSKLTVDKSRWQQGNVFSCSVMHEALHNHYTQKSLSLSPGSGGGGSGGGGSQVQLQESGPGLVKPSQTLSLTCTVSGGSITSDYWNWIRQHPGNKLEYMGYISYTGSTYYNPSLKSRISITRDTSKNQFSLKLSSVTTADTAVYYCARYRDWDVRAMDYWGQGTTVTVSSGGGGSGGGGSGGGGSGGGGSDIVMTQSPDSLAVSLGEKVTMNCKSSQSLLISGNQKNFLTWYQQKPGQPPKLLIYWASTRESGVPDRFSGSGSGTDFTLTISSLQAEDEAVYYCQNDFGFPFTFGQGTKLTAK
light: DVVLTQSPLSLPVTLGQPASISCRSSQSLENSNGNTFLNWFQQRPGQSPRLLIYKVSNRFSGVPDRFSGSGSGTDFTLKISRVEAEDVGVYYCLQVTHVPFTFGQGTKLEIKRTVAAPSVFIFPPSDEQLKSGTASVVCLLNNFYPREAKVQWKVDNALQSGNSQESVTEQDSKDSTYSLSSTLTLSKADYEKHKVYACEVTHQGLSSPVTKSFNRGEC
notes: Asymmetric: knob chain with the 3C2VH6VL5 scFv, hole chain with the 56E5VH5VL4 scFv, linker 3 (long linker); also called MBS307-8-1 + MBS307-8-2
B3: anti-PD-L1 antibody 3C2VH6VL5 (antibody, V domains shown)
VH: QVQLVQSGAEVKKPGASVKVSCKASGYTFTDYHVNWVRQAPGQGLEWIGWIFPGSGRTFYTDKFKGRVTMTVDTSTSTVYMELSSLRSEDTAVYYCATDYGTSGYGLVYWGQGTTVTVSS
VL: DIQMTQSPSSLSASVGDRVTITCKASDRINNWLAWYQQKPGKAPKLLISGATSLETGVPSRFSGSGSGTDFTLTISSLQPEDIATYYCQQYWNIPFTFGQGTKVEIK
notes: also called 3C2VH46VL5 [sic]

What was measured:
[1] = target: T1, human CD40 on HEK293A/human CD40 cells (human, UniProt P25942 21-277); assay: FACS on HEK293A/human CD40 cells
T1 construct: also called HEK-Blue/CD40 cells
Procedure: (§1) The bispecific antibodies as prepared above were tested for their binding capability to cell surface human, monkey and mouse CD40 proteins by FACS, using the HEK293A cells prepared in Example 1 that stably expressed human, monkey or mouse CD40. Briefly, a 96-well plate was seeded with 10⁵ HEK293A cells in 50 μl PBS, and then added with 100 μl serially diluted anti-CD40 antibody 714VH2VL2 and the bispecific antibodies of the disclosure (starting concentration at 40 μg/ml). After incubation at 4° C. for 1 h, the plate was washed by PBST for 3 times. The plate was added with 1:500 diluted APC-goat anti-mouse IgG (Cat #:405308, BioLegen, USA), incubated at 4° for 1 h, washed with PBS for 3 times, and subjected to fluorescence measurement in a FACS machine (BD).
(§2) Following the protocols in Example 4 and Example 5, the bi- or multi-specific antibodies of the disclosure were tested for their binding capability to human PD-L1 and human CD40 proteins by FACS using the HEK293A cells prepared in Example 1 that stably expressed human PD-L1 or human CD40.

[2] = target: T1, human CD40 on HEK293A/human CD40 cells; assay: cell-based or functional assay
[3] = target: T1, human CD40 on HEK293A/human CD40 cells; assay: FACS on HEK293A/human CD40 cells; remark: listed apart in the source
Procedure: as §1, §2

human CD40-his protein = target: T2, human CD40-his protein (human, UniProt P25942 21-193); assay: SPR (BIAcore 8K), human CD40-his coupled to CM5 chip, antibody injected
T2 construct: Bought protein; also called human CD40 protein; CD40 molecules; not shown: his tag
Text: (§3) Using BIAcore™ 8K instrument (GE Life Sciences, US), the binding affinity of the bi- or multi-specific antibodies to human CD40 and PD-L1 was quantitatively measured. Briefly, 100-200 response units (RU) of human CD40-his protein (Cat #:10774-1108H, Sino Biological, CN) or human PD-L1-his protein (Cat #:10084-H08H, Sino Biological, CN) were coupled to CM5 biosensor chips (Cat #:BR-1005-30, GE Life Sciences. USA). The un-reacted groups were then blocked with 1 M ethanolamine. Serially diluted antibodies at concentrations ranging from 0.3 μM to 10 μM were injected into the SPR running buffer (HBS-EP buffer, pH7.4, Cat #:BR-1006-69, GE Life Sciences, USA) at 30 μL/min. The binding affinity was calculated with the RUs of blank controls subtracted, and the association rate (kₐ) and dissociation rate (kd) were determined using the one-to-one Langmuir binding model (BIA Evaluation Software, GE Life Sciences, USA). The equilibrium dissociation constant KD was calculated as the kd/kₐ ratio.

[4] = target: T1, human CD40 on HEK293A/human CD40 cells; assay: cell-based or functional assay; remark: listed apart in the source
human PD-L1-his protein = target: T3, human PD-L1-his protein (human, UniProt Q9NZQ7 19-238); assay: SPR (BIAcore 8K), human PD-L1-his coupled to CM5 chip, antibody injected
T3 construct: extracellular domain; also called human PD-L1 (ECD)-his; human PD-L1 protein; not shown: his tag
Text: as §3

[5] = target: T1, human CD40 on HEK293A/human CD40 cells; assay: FACS on HEK293A/human CD40 cells; remark: listed apart in the source
Procedure: as §1, §2

[6] = target: T4, human PD-L1 on HEK293A/human PD-L1 cells (human, UniProt Q9NZQ7 19-290); assay: FACS on HEK293A/human PD-L1 cells
Procedure: as §1, §2

[7] = target: T4, human PD-L1 on HEK293A/human PD-L1 cells; assay: FACS on HEK293A/human PD-L1 cells; remark: listed apart in the source
Procedure: as §1, §2

[8] = target: T4, human PD-L1 on HEK293A/human PD-L1 cells; assay: FACS on HEK293A/human PD-L1 cells; remark: listed apart in the source
Procedure: as §1, §2

[9] = target: T4, human PD-L1 on HEK293A/human PD-L1 cells; assay: FACS blocking assay on HEK293A/human PD-L1 cells; blocked ligand PD-1-Fc
Procedure: The bispecific antibodies were tested for their blocking activity on PD-1-PD-L1 binding by FACS using the HEK293A cells stably expressing human PD-L1 molecules as prepared in Example 1. Briefly, a 96-well plate was seeded with 10⁵ HEK293A/human PD-L1 cells in 100 μl cell culture medium, and then added with 50 μl serially diluted anti-PD-L1 antibody 56E5VH5VL4 or MBS307-3 molecules. After incubation at 4° C. for 1 h. the plate was washed with PBST for 3 times, added with 100 μl 200 μg/ml PD-1-Fc fusion proteins (Cat #:10377-10211, Sino Biological, CN), incubated at 4° C. for 1 h, washed with PBST for 3 times, and added with 1:500 diluted PE-goat anti-human IgG (Cat #:PAI-86078, Thermofisher, USA). After incubation at 4° C. for 1 h, the plate was washed with PBST for 3 times and measured for fluorescence using a FACS machine (BD).
Following the protocol of Example 7, the bi- or multi-specific antibodies were tested for their capability to block PD-1-PD-L1 binding by FACS, using the HEK293A cells prepared in Example 1 that stably expressed human PD-L1 molecules.

T4 sequence (Q9NZQ7 19-290 limits assumed): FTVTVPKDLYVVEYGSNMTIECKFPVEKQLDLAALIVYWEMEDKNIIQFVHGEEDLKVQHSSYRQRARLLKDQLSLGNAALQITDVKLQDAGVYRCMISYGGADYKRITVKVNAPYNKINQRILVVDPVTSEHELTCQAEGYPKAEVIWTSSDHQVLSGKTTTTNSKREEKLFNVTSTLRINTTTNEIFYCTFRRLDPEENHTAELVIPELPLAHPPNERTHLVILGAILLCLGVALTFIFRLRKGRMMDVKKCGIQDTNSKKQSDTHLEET
T3 sequence (Q9NZQ7 19-238): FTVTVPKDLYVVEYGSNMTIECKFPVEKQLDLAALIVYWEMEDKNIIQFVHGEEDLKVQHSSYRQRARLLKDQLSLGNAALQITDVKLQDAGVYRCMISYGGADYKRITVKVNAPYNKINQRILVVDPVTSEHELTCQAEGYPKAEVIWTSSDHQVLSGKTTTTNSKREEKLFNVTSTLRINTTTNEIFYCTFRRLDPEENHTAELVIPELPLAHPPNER

| Binder | EC50 (read off the curve) [1] | EC50 (read off the curve); HEK-Blue/CD40 reporter, OD630, plate coated with human PD-L1-his [2] | EC50 (read off the curve) [3] | Kd (human CD40-his protein) | EC50 (read off the curve); HEK-Blue/CD40 reporter, OD630, plate coated with human PD-L1-his [4] | Kd (human PD-L1-his protein) | EC50 (read off the curve) [5] | EC50 (read off the curve) [6] | EC50 (read off the curve) [7] | EC50 (read off the curve) [8] | IC50 (read off the curve) [9] |
| --- | --- | --- | --- | --- | --- | --- | --- | --- | --- | --- | --- |
| B1 | ~0.04 µg/mL | ~0.05 µg/mL | ~0.02 µg/mL | 2.72 nM | ~0.03 µg/mL | 17.7 nM | ~0.07 µg/mL | – | – | – | – |
| B2 | – | – | ~0.04 µg/mL | – | – | – | – | ~0.5 µg/mL | – | – | – |
| B3 | – | – | – | – | – | – | – | – | ~0.2 µg/mL | ~0.1 µg/mL | ~0.5 µg/mL |
